Bridge positions count the residues as written; N and C are the ends. Square brackets hold non-standard residues; d marks the D form. Peptide text beside a SMILES is read from it. * marks the point of attachment. HYNIC = NNc1ccc(C(=O)*)cn1; Nle = CCCC[C@H](N)C(=O)O; GABA = NCCCC(=O)O
What was measured:
[1] = Protein binding by precipitation method; format: in vitro ADME
Description: Protein binding of radiolabeled peptide was measured by precipitationmethod resulting 37%forradioconjugate. Plasma proteins binding could be due to transchelation, which is possible with exchange reactions among co-ligands and the possible action of HYNIC as a mono- or bi-dentated ligand complexing ^99mTc.

[2] = test system: B16/F10 tumor (MC1 receptor); test: Biodistribution in B16/F10 tumor bearing nude mice; format: in vivo; details: nude mice with B16/F10 tumor
Description: Animal experiments were performed in compliance with the regulations of our institution and with generally accepted guidelines governing such work.Groups of three nude mice were used in each experiment. A suspension of B16/F10 cells (1×10^7) in PBS was subcutaneously injected in the right flank of each nude mice. Seven days after inoculation, the tumors were inducted and then, ^99mTc-tricine-HYNIC-peptide (20 MBq) was injected via a femoral vein. Also a group of three animals were injected with peptide ([…]) in saline (0.9%; […]) as a co-injection with the radiopeptide (blocked animals). After 1, 4 and 24 h, the groups of mice were killed, then the organs of interest were excised, weighed and counted in the gamma counter. The percentage of the injected dose per gram (% ID/g) was calculated for each tissue. At 4 h after injection, accumulation of the tracer in tumor area was also assessed by planar scintigraphy under ether anesthesia.

[3] = Stability of radiolabeled peptide in human serum; format: in vitro ADME; details: fresh human serum, 37 °C, RP-HPLC with gamma detector
Description: (§1) The stability of radiolabeled peptide in aqueous solution was evaluated by incubation of the reaction mixture at ambient temperature (25 °C) up to 24 h. Stability in human serum at 37 °C was tested in parallel after adding 100 μL of reaction mixture to 1mL of fresh human serum. The incubation mixtures were sampled at 1,6 and 24 h time points. Serum samples (100–200 μL) were treated with ethanol (200–400 μL) and centrifuged (4000 g, 5 min, 4 °C) to precipitate the serum proteins.20–100 μL aliquots from the supernatant were separated to assess the degradation of ^99mTc labeled peptide by RP-HPLC. 100 μL aliquots from the 25 °C incubated mixture were passed from a 0.22 μ filter to eliminate the probable ^99mTc colloids and then, 5–20 μL of filtrate were analyzed by RP-HPLC as well.

[4] = Stability of radiolabeled peptide in aqueous solution; format: physicochemical
Description: as §1

## CCCC[C@H](NC(=O)CCCNC(=O)c1ccc(NN)nc1)C(=O)N[C@H]1CC(=O)NCCCC[C@@H](C(N)=O)NC(=O)CNC(=O)[C@H](Cc2c[nH]c3ccccc23)NC(=O)[C@H](CCCNC(=N)N)NC(=O)[C@@H](Cc2ccccc2)NC(=O)[C@H](Cc2c[nH]cn2)NC1=O [^99mTc-tricine-HYNIC-peptide, ^99mTc-tricine-HYNIC-GABANle-CycMSHhept, metal not drawn] ({HYNIC-GABA}-[Nle]DH[dF]RWGK-NH2; lactam 2-8)
[1]
  protein binding: 37%
[2]; 20 MBq via femoral vein, 1 h after injection, n = 3
  kidneys uptake: 7.38 ± 0.56 % ID/g
[2]; 20 MBq via femoral vein, 4 h, n = 3
  tumor uptake: 4.51 ± 0.11 % ID/g
[2]; 1 h, n = 3
  blood uptake: 1.26 ± 0.13 % ID/g
  intestines uptake: 0.65±0.05 % ID/g
  liver uptake: 1.48 ± 0.08 % ID/g
[2]; co-injection of cold peptide, time not stated
  tumor uptake, blocked group: 2.33 % ID/g
[2]; time not stated
  liver uptake: lower than 2.0 % ID/g
[3]; 24 h
  labeling yield remaining after incubation in human serum: 75%
[3]; 100 μL reaction mixture in 1 mL serum, up to 6 h, ethanol precipitation
  stability in human serum (release of 99mTcO4- or peptide degradation): no significant release of ^99mTcO4^− or peptide degradation
[4]; reaction mixture, ambient temperature (25 °C), 24 h, RP-HPLC with gamma detector
  labeling yield remaining after incubation in aqueous solution: 75%
[4]; reaction mixture, ambient temperature (25 °C), up to 6 h, 0.22 μ filtered, RP-HPLC with gamma detector
  stability in aqueous solution (release of 99mTcO4- or peptide degradation): no significant release of ^99mTcO4^− or peptide degradation
[4]; up to 6 h post labeling
  radiochemical stability: excellent radiochemical stability

From article PMC5149022, “A ^99mTc-tricine-HYNIC-labeled Peptide Targeting the Melanocortin-1 Receptor for Melanoma Imaging” (Iranian Journal of Pharmaceutical Research : IJPR, 2016)
